In the RNAGym collection of RNA variant scans (doi:10.1073/pnas.2313332121):

B1: TPR t1 (parent)
chain: GACCAAUCUGCCCUCAGAGCUCGAGAACAUCUUCGGAUGCAGAGGAGGCAGGCUUCGGUGGCGCGAUAGCGCCAACGUCCUCAACCUCCAAUGCAUCCCACCACAUGAUGAUGCCUGAAGAGCCUUGGUUUUUUG

Variants of: B1
Test: polymerase ribozyme fitness, log enrichment relative to wild type (log ratio); higher = more active; in vitro selection for triplet polymerase activity
How it was run: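 The heterodimeric triplet polymerase ribozyme's subunits were each mutagenized into PCR-built libraries and transcribed. Every library was selected once, in triplicate, by annealing with a biotinylated primer, the partner subunit and triplets, incubating frozen at −7 °C, gel-excising extended constructs, capturing on streptavidin beads and running RT-PCR. Input and output libraries were Illumina-sequenced, with genotypes kept only at ≥10 input reads and ≥1 read per output. Fitness, from inverse-variance-weighted replicate averages, is the base-2 logarithm of genotype enrichment over wild-type enrichment.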

Row | Variant | polymerase ribozyme fitness (log ratio)
1 | C53A U130A | 0.226
2 | G52U C72U U78C A121C | 1.26
3 | G52A U87C C99U | -3.97
4 | G51A C82A | -4.73
5 | G52A A74U | -0.719
6 | C53U G71U U81A C123U G135A | -0.21
7 | A50U G51A C64U C82A A119G | -0.277
8 | C53G C115G | -1.44
9 | G51U G117A | -5.11
10 | A50U C56U A83C | -1.21
11 | G51A A95C | -3.42
12 | C53U G69U | 0.587
13 | G52A C70U G120A U132A | 0.354
14 | C53U C79G | -1.2
15 | G52A A118G | -0.546
16 | G52C C56U C82U A84C | 0.272
17 | A50U C62U C70G G117U G120A | -6.48
18 | G51U C62U U112G | -5.35
19 | C53A C99U | -4.03
20 | C53U U129A | -1.24
21 | C53G U92A | -3.48

Row | Variant | polymerase ribozyme fitness (log ratio)
22 | G52A C62A C123A | -1.42
23 | C53U C72U C82G C123G | -0.45
24 | C53A G71U C86U A100U G110U | -4.31
25 | A50U C85U G120C U130A | -0.66
26 | C53A G61A U78G | 0.644
27 | A50U C123G U131G | 0.128
28 | C53A G63U U81G A83U G120C | -3.85
29 | G51A C72U C82U A83G C94U U126A | -2.93
30 | C53U G69A A103C G120U G128C U131G | -6.03
31 | G52A G122A C124U | 0.227
32 | C53A C79A | -3.06
33 | C53A C56U G58A U133G | -0.438
34 | C53A C56A G77C C89G | -0.889
35 | G52C C70A G117C | -5.92
36 | A50G U116A | -3.15
37 | G52U U132A | -0.57
38 | G51C U78C | -4.89
39 | C53A C64U U78C C104A | -0.646
40 | A50G U54G A95C | -1.88
41 | G52U A83U C98U | -2.49
42 | G51A G117C | -5.64

Row | Variant | polymerase ribozyme fitness (log ratio)
43 | G51U U78C A111C C123U | -6.69
44 | G52A U87C G117C | -3.1
45 | A50U G63C | -1.63
46 | C53A G69U A105U | -0.0597
47 | C53U C70A A84C A100U | -3.17
48 | G52U C73G U112A G120A C124A U126A | -0.0832
49 | G51U U78C | -4.43
50 | G51A A66U | -5.73
51 | A50U G61U G110A G127A | -3.84
52 | G52U C98U | -2.89
53 | G51U U129C | -4.13
54 | A50U C82U A119U | -2.14
55 | C53A G57C U78A U112A A119G | 2.05
56 | C53A U54G C70U C86U C89G A121C U125A | -2
57 | C53U G71A | -0.671
58 | A50U A108G | -3.01
59 | C53G C70A | -3.68
60 | G52A C56A U106A | -1.08
61 | G52U G69A C94A C104U A118G | -5.65
62 | G52U C73U U129C | -1.39
63 | C53U C73G G113C U132C | -3.47

Row | Variant | polymerase ribozyme fitness (log ratio)
64 | G52A U116C | -0.22
65 | C53A U54A C62U C80A C114A C124G U125A | -6.53
66 | C53A C114A | -1.87
67 | G51A G57C U59C U96G U106A A118G | -5.28
68 | C53A A74U U125A | -1.05
69 | C53G C62U A119U | -0.561
70 | C53U C72A A91G U132A | 0.186
71 | G51U C94G | -4.19
72 | A50U G69A U81A A100C | -4.08
73 | C53G U130A | -0.508
74 | C53U C64U U106A | -1.12
75 | G51C C56U G110A | -5.23
76 | G51A G60U | -1.77
77 | G51A G120U | -2.59
78 | G51U C114U | -5.14
79 | G52C U59C G120U U125C | -0.0154
80 | C53U C80U U81C G120A | -3.73
81 | G52A G69U C79G U87A A90U U116A | -3.3
82 | G52A C72U C85G | -2.39
83 | G51A C64U A105G C115G | -8.49
